Experimental data reported in patent US20240026011A1 (published 2024).

Tests used:
[1] = molecular target: cyno HER2 on cells (cynomolgus monkey, UniProt A0A2K5WUT7 1-1225); assay: kinetic affinity (kon/koff); Pro51 format
[2] = molecular target: human CA9 on cells (human, UniProt Q16790 38-459); assay: affinity; Pro51 format
[3] = molecular target: cyno CA9 on cells (cyno, UniProt A0A2K5VQG9 38-447); assay: affinity; Pro51 format
[4] = molecular target: human HER2 on cells (human, UniProt P04626 23-1255); assay: kinetic affinity (kon/koff); Pro51 format

Chain of cyno CA9 on cells (A0A2K5VQG9 entry or part of it): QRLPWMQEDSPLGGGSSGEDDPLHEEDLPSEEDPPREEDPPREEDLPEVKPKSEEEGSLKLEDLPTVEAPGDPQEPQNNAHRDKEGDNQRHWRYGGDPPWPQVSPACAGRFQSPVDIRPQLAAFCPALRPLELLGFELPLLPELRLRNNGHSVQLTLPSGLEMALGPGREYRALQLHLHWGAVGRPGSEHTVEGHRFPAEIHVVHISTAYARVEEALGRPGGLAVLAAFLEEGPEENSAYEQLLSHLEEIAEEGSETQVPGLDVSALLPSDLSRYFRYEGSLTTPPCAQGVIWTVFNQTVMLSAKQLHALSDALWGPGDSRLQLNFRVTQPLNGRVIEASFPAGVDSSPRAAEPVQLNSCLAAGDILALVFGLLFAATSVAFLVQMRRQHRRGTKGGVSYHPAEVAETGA

B1: Pro1043 VIB1139 (bispecific antibody, V domains shown)
VH: QVQLQESGGGLVQPGGSLRLSCAASGFTFDDYAMSWIRQAPGKEMEWVSGINWSGTHTRYADSVKGRFTISRDNAKNTLDLQMNSLISEDTAVYYCARGFAADSRSTRGQGTQVTVSS
[1]
  Kd: 6.7 nM

B2: h1139 (Pro1060) (protein)
chain: QVQLVESGGGVVRPGGSLRLSCAASGFTFDDYAMSWIRQAPGKEMEWVSGINWSGTHTRYADSVKGRFTISRDNAKNSLYLQMNSLRAEDTALYYCARGFAADSRSTRGQGTLVTVSS
[1]
  Kd: 7.4 nM

B3: h456 (Pro509) (antibody, V domains shown)
VH: QVQLVESGGGLVQPGGSLRLSCAASGSALIINAMGWYRQAPGKQRELVATVTRSGRTNYADSVKGRFTISRDNSKNTLYLQMNSLRAEDTAVYYCNVALWIADGEYDYWGQGTLVTVSS
[2]
  Kd: 0.7 nM
[3]
  Kd: 1.1 nM

B4: 1058 (Pro1037) (protein)
chain: QVQLQESGGGLVQPGGSLRLTCAASGRAISSYAISWFRQAPGEEREFVAAINWSGTHTNYADSVKGRFTISRDNVKNTVYLQMNSLKPEDTATYFCSRGWSVFDPDYRGQGTQVTVSS
[4]
  Kd: 8.6 nM
[1]
  Kd: 9.7 nM

B5: Pro1038 VIB1059 (bispecific antibody, V domains shown)
VH: QVQLQESGGGLVQPGGSLRLTCAASGRAISSYAISWFRQAPGEEREFVAAINWSGTHTDYADSVKGRFTISRDNAKNTVYLQMNSLKPEDTAVYFCSRGWSVFDPDYRGQGTQVTVSS
[1]
  Kd: 85 nM

B6: Pro1036 VIB1055 (bispecific antibody, V domains shown)
VH: QVQLQESGGGLVQPGGSLRLTCEVSGRAISSYAISWFRQAPGEEREFVAAINWSGTHTNYADSVKGRFTISRDNVKNTVYLQMNSLKPEDTATYFCSRGWSVFDPDYRGQGTQVTVSS
[1]
  Kd: 69.9 nM

B7: h445 (Pro512) (antibody, V domains shown)
VH: QVQLVESGGGLVKPGGSLRLSCAASGITFNLHAMRWYRRAPGKQRELVAYISARDWTNYADSVKGRFTISRDNAKNSLYLQMNSLRAEDTAVYYCNTDLVGEDYWGRGTLVTVSS
[2]
  Kd: 3.1 nM
[3]
  Kd: 4.9 nM

B8: Pro1044 VIB1156 (bispecific antibody, V domains shown)
VH: QVQLQESGGGLVQAGGSLKVSCAASRNIGSNYAVGWFRQAPGKEREPVAALRWTGSIIGYDDSLRGRFTISKDDAKNTVYLQMNSLKPEDTGVYYCAARILDRSSYDYWGQGTQVTVSS
[1]
  Kd: 9 nM

B9: Pro1045 VIB1159 (bispecific antibody, V domains shown)
VH: QVQLQESGGGLVQAGGSLRLSCATSGRTFSSLAMGWFRQAPGKERELVAGISWSGSTTYYADSVKGRFAISRDNAKNTVYLQMNSLKPEDTAVYYCAARTSSIATIGREYDYWGQGTQVTVSS
[1]
  Kd: 17 nM

B10: h1159 (Pro1062) (antibody, V domains shown)
VH: QVQLLESGGGLVQPGGSLRLSCATSGRTFSSLAMGWFRQAPGKERELVAGISWSGSTTYYADSVKGRFAISRDNSKNTLYLQMNSLRAEDTAVYYCAARTSSIATIGREYDYWGQGTLVTVSS
[1]
  Kd: 37 nM

B11: h476 (Pro510) (antibody, V domains shown)
VH: QVQLVESGGGLVQPGGSLRLSCAASGNIFIINVMGWYRQAPGKQRELVATITNGGRTHYADSVKGRFTISRDNSKNTLYLQMNSLRAEDTAVYYCNANHIELGDYWGQGTLVTVSS
[2]
  Kd: 1.6 nM
[3]
  Kd: 1.2 nM

B12: 1121 (Pro1042) (protein)
chain: QVQLQESGGGLVQAGGSLRLSCAASGFIFSDYAMTWVRQAPGKGLEWVSSINWSGTHTNYADSVKGRFTISRDNAKKTLYLQMNSLKSEDTAVYYCARGWMVVPDSTRGQGTQVTVSS
[1]
  Kd: 4.6 nM

B13: 1091 (Pro1039) (protein)
chain: QVQLQESGGGLVQPGGSLRLSCAASGFTFDDYAMSWVRQAPGKGLEWVSSINWSGTHTDYADSVKGRFTISRDNAKNTLYLQMNSLKSEDSAVYYCVKGWRLTGGYYDSVQGQGTQVTVSS
[1]
  Kd: 8.5 nM

B14: 1097 (Pro1041) (protein)
chain: QVQLQESGGGLVQPGGSLRLSCAASGFIFDDYAMTWVRQAPGKGLEWVSSINWSGTHTDYADSVKGRFTISRDNAKNTLYLQMNSLKSEDSAVYYCVKGWRHTDNYYAGVQGQGTQVTVSS
[1]
  Kd: 4.3 nM

B15: 1092 (Pro1040) (protein)
chain: QVQLQESGGGLVQAGASLRLSCAASGFTFDDYALSWVRQAPGKGLEWVSSINWSGTHTDYADSVKGRFTISRDNAKNTLYLQMNSLKSEDSAVYYCVKGWRLTGGYYDSVQGQGTQVTVSS
[1]
  Kd: 4.5 nM

B16: 1160 (Pro1046) (antibody, V domains shown)
VH: QVQLQESGGGLVQAGGSLRLSCAASGRTFSNERLGWFRQAPGKERELVAAIRWSGVIIGYADSVRGRFTISRDNAKSTVYLQMNSLRPEDTAVYFCAADRGVYGTWDYWGQGTQVTVSS
[1]
  Kd: 10.8 nM

B17: humanized aHER2 sdAb h1162 (VHH)
VHH: QVQLLESGGGLVQPGGSLRLSCAASGRPFSGNAMGWFRQAPGKEREFVAAISWSGDSTYYADSVKGRFTISRDNSKNTLYLQMNSLRAEDTAVYYCAATRSFYSRTYYTRPSDYNYWGPGTLVTVSS
[1]
  Kd: 21.8 nM

B18: Pro1047 VIB1162 (bispecific antibody, V domains shown)
VH: QVQLQESGGGLVQAGGSLRLSCAASGRPFSGNAMGWFRQAPGKEREFVAAISWSGDSTYYADSVKGRFTISRDNDENTAYLQMNSLKPEDTAVYYCAATRSFYSRTYYTRPSDYNYWGPGTQVTVSS
[1]
  Kd: 21.2 nM
